Test results published in the supplement of paper PMC10065799, “High-throughput profiling of sequence recognition by tyrosine kinases and SH2 domains using bacterial peptide display” (eLife, 2023).

Target: FGFR3 (UniProt P22607)
Assay: phosphorylation enrichment, bacterial display (enrichment ratio); higher = better substrate or ligand; peptides without Tyr show the background
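Also: 11-residue human phosphosite peptides and single-mutation variants displayed on the E. coli surface, counted by deep sequencing, each peptide's frequency after selection divided by its frequency in the unselected input library; frequency after pTyr selection over input frequency; kinase dosed for 20-30% of maximal phosphorylation in three min.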

FGFR3, sequence (P22607 whole entry, looked up): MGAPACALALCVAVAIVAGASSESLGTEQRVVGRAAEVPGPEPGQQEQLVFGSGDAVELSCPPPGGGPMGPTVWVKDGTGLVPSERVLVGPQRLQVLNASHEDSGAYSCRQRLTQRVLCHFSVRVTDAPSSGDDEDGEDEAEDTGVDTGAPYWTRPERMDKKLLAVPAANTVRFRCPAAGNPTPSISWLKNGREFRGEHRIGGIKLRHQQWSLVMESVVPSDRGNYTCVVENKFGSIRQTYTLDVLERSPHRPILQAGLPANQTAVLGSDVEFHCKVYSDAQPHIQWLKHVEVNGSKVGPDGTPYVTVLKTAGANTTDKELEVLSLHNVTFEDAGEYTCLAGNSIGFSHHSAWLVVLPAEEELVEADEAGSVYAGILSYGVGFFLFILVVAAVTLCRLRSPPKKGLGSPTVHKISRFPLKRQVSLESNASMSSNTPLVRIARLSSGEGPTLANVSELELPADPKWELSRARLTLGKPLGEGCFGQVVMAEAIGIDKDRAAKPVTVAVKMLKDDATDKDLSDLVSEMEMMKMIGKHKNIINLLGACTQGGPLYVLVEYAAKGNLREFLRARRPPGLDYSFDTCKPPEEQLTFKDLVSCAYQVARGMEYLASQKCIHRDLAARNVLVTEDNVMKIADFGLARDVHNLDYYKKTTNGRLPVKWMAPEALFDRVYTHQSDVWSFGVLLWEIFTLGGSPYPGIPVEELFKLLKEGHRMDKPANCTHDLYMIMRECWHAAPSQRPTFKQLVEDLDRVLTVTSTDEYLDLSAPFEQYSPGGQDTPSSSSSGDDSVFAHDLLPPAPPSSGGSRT

Row | Sequence | phosphorylation enrichment
1 | AEFGLYGAMVW [VSX2_Y222_R227W_YF] | 0.887
2 | ILILKYPIEHG [ACTA1_Y71_T68I] | 0.807
3 | VTGWGYRKLRE [F11_Y521_D526E] | 0.631
4 | FCRHNYGAVES [HLA-DRB1_Y112_V114A_YF] | 0.604
5 | SLDLSYFTTSS [EMD_Y181_P183T_YF] | 0.605
6 | DEFLEYRRIVG [FAM221A_Y20_YF] | 0.551
7 | SSNLFYRWLTA [CNGA3_Y169_YF] | 0.744
8 | SSENPYATIKD [MEGF10_Y1030] | 0.53
9 | GVIKEYQIRQV [USH2A_Y3623] | 0.476
10 | MLEAPYVDRNS [F10_Y384_V382A] | 0.557
11 | PKGTGYIKTEL [STAT1_Y701] | 1.01
12 | TIQRMYGCDVG [HLA-A_Y123_I121R] | 0.598
13 | SFCFRYRCAPR [SUMF1_Y344_A348P_YF] | 0.587
14 | ISRVLYPNDNF [PYGM_Y281] | 0.472
15 | CDLTDYLMKIL [ACTA1_Y190_R185C] | 1.02
16 | MSPPGYKLVTG [GJA1_Y286] | 0.533
17 | FMYKVYSDPQP [FGFR1_Y280_C277Y] | 0.642

Row | Sequence | phosphorylation enrichment
18 | LYEDCYLLGTS [ASS1_Y87_R86C] | 1.28
19 | YDCKWYIPLTD [BCR_Y756] | 0.805
20 | EKMWTYMRSAE [GRIA4_Y695] | 0.602
21 | TMKSRYMELFD [BBS2_Y644_YF] | 0.667
22 | TESNNYIFKTL [FAM83B_Y637_YF] | 0.82
23 | TDVSLYPSGGT [TENM4_Y399] | 0.428
24 | RLEGVYGNNID [PTEN_Y46_R47G] | 0.381
25 | YDGGCYEQLFV [MC4R_Y41_S36Y] | 1.45
26 | KLQQWYREHRS [GPI_Y17] | 0.475
27 | APVEDYGGGGG [B4GALT6_Y382_I379V] | 0.641
28 | SRIWVYNHYRW [BRCA2_Y2621] | 0.845
29 | RWGQKHMTAVV [CYBA_Y72_Y72H] | 0.74
30 | CGTPTCLAPEV [CHEK2_Y390_Y390C] | 0.627
31 | SVIVPYEPPEV [TP53_Y220_V217I] | 0.81
32 | SHNKYYMLVAR [MFSD8_Y134] | 3.28
33 | FLTLHYDAKPQ [ANG_Y38_Q36L] | 0.575

System: Fer (mouse)
Assay: as above

Row | Sequence | phosphorylation enrichment
34 | AEFGLYGAMVW [VSX2_Y222_R227W_YF] | 2.1
35 | ILILKYPIEHG [ACTA1_Y71_T68I] | 0.694
36 | VTGWGYRKLRE [F11_Y521_D526E] | 0.508
37 | FCRHNYGAVES [HLA-DRB1_Y112_V114A_YF] | 0.42
38 | SLDLSYFTTSS [EMD_Y181_P183T_YF] | 0.37
39 | DEFLEYRRIVG [FAM221A_Y20_YF] | 0.526
40 | SSNLFYRWLTA [CNGA3_Y169_YF] | 0.493
41 | SSENPYATIKD [MEGF10_Y1030] | 0.944
42 | GVIKEYQIRQV [USH2A_Y3623] | 0.353
43 | MLEAPYVDRNS [F10_Y384_V382A] | 0.391
44 | PKGTGYIKTEL [STAT1_Y701] | 0.801
45 | TIQRMYGCDVG [HLA-A_Y123_I121R] | 0.46
46 | SFCFRYRCAPR [SUMF1_Y344_A348P_YF] | 0.726
47 | ISRVLYPNDNF [PYGM_Y281] | 0.422
48 | CDLTDYLMKIL [ACTA1_Y190_R185C] | 0.541
49 | MSPPGYKLVTG [GJA1_Y286] | 0.516
50 | FMYKVYSDPQP [FGFR1_Y280_C277Y] | 0.532

Row | Sequence | phosphorylation enrichment
51 | LYEDCYLLGTS [ASS1_Y87_R86C] | 13.4
52 | YDCKWYIPLTD [BCR_Y756] | 0.502
53 | EKMWTYMRSAE [GRIA4_Y695] | 0.359
54 | TMKSRYMELFD [BBS2_Y644_YF] | 0.382
55 | TESNNYIFKTL [FAM83B_Y637_YF] | 0.597
56 | TDVSLYPSGGT [TENM4_Y399] | 0.535
57 | RLEGVYGNNID [PTEN_Y46_R47G] | 0.621
58 | YDGGCYEQLFV [MC4R_Y41_S36Y] | 11.4
59 | KLQQWYREHRS [GPI_Y17] | 0.392
60 | APVEDYGGGGG [B4GALT6_Y382_I379V] | 0.409
61 | SRIWVYNHYRW [BRCA2_Y2621] | 0.396
62 | RWGQKHMTAVV [CYBA_Y72_Y72H] | 0.692
63 | CGTPTCLAPEV [CHEK2_Y390_Y390C] | 0.54
64 | SVIVPYEPPEV [TP53_Y220_V217I] | 0.631
65 | SHNKYYMLVAR [MFSD8_Y134] | 0.486
66 | FLTLHYDAKPQ [ANG_Y38_Q36L] | 0.328

Target: Fes (UniProt P07332)
Sequence (P07332 whole entry, looked up): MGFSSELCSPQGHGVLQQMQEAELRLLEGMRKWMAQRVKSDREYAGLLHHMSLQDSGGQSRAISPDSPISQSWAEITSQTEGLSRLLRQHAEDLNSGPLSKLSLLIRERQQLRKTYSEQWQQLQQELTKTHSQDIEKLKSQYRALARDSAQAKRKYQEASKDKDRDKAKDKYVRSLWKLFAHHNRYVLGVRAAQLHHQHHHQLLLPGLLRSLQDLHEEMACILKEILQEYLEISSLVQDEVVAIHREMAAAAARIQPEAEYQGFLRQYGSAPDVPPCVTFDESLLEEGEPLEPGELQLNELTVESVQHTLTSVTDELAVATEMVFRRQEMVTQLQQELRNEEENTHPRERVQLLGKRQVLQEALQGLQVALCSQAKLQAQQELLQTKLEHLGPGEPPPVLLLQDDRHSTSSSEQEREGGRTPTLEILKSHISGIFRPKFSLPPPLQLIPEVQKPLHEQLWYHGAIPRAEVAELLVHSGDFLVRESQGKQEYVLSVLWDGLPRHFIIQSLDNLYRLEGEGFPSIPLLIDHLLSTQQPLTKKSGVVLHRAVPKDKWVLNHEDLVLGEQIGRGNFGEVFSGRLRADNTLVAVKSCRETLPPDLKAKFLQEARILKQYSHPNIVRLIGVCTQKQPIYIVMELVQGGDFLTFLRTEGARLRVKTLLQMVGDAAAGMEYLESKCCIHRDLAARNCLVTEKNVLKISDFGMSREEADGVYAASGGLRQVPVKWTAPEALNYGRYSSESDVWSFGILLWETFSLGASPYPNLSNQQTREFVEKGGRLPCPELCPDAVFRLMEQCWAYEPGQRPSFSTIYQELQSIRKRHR
Assay: as above

Row | Sequence | phosphorylation enrichment
67 | AEFGLYGAMVW [VSX2_Y222_R227W_YF] | 1.48
68 | ILILKYPIEHG [ACTA1_Y71_T68I] | 1.29
69 | VTGWGYRKLRE [F11_Y521_D526E] | 0.763
70 | FCRHNYGAVES [HLA-DRB1_Y112_V114A_YF] | 0.826
71 | SLDLSYFTTSS [EMD_Y181_P183T_YF] | 0.836
72 | DEFLEYRRIVG [FAM221A_Y20_YF] | 1.17
73 | SSNLFYRWLTA [CNGA3_Y169_YF] | 0.982
74 | SSENPYATIKD [MEGF10_Y1030] | 0.897
75 | GVIKEYQIRQV [USH2A_Y3623] | 0.575
76 | MLEAPYVDRNS [F10_Y384_V382A] | 0.954
77 | PKGTGYIKTEL [STAT1_Y701] | 0.835
78 | TIQRMYGCDVG [HLA-A_Y123_I121R] | 1.05
79 | SFCFRYRCAPR [SUMF1_Y344_A348P_YF] | 0.69
80 | ISRVLYPNDNF [PYGM_Y281] | 0.748
81 | CDLTDYLMKIL [ACTA1_Y190_R185C] | 1.7
82 | MSPPGYKLVTG [GJA1_Y286] | 0.715
83 | FMYKVYSDPQP [FGFR1_Y280_C277Y] | 1.16

Row | Sequence | phosphorylation enrichment
84 | LYEDCYLLGTS [ASS1_Y87_R86C] | 2.12
85 | YDCKWYIPLTD [BCR_Y756] | 1.41
86 | EKMWTYMRSAE [GRIA4_Y695] | 1.01
87 | TMKSRYMELFD [BBS2_Y644_YF] | 0.914
88 | TESNNYIFKTL [FAM83B_Y637_YF] | 1.12
89 | TDVSLYPSGGT [TENM4_Y399] | 0.552
90 | RLEGVYGNNID [PTEN_Y46_R47G] | 0.603
91 | YDGGCYEQLFV [MC4R_Y41_S36Y] | 1.38
92 | KLQQWYREHRS [GPI_Y17] | 0.613
93 | APVEDYGGGGG [B4GALT6_Y382_I379V] | 0.882
94 | SRIWVYNHYRW [BRCA2_Y2621] | 1.59
95 | RWGQKHMTAVV [CYBA_Y72_Y72H] | 1.39
96 | CGTPTCLAPEV [CHEK2_Y390_Y390C] | 1.1
97 | SVIVPYEPPEV [TP53_Y220_V217I] | 1.23
98 | SHNKYYMLVAR [MFSD8_Y134] | 0.939
99 | FLTLHYDAKPQ [ANG_Y38_Q36L] | 0.983

Target: Fyn (UniProt P06241)
Sequence (P06241 whole entry, looked up): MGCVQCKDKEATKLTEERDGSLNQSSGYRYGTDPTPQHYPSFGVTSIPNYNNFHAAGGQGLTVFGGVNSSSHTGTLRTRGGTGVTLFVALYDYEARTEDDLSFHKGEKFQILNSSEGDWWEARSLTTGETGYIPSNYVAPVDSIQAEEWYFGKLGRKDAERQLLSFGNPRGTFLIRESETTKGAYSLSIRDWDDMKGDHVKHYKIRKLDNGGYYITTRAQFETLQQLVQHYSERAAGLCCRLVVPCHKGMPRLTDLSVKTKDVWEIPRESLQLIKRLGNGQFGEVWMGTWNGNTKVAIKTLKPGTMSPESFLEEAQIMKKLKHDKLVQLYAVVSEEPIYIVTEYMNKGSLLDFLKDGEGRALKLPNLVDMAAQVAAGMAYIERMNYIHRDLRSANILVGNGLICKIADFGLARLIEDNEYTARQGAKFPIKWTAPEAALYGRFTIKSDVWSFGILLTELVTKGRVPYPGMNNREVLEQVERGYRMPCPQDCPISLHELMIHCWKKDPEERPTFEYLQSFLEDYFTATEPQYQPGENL
Assay: as above

Row | Sequence | phosphorylation enrichment
100 | AEFGLYGAMVW [VSX2_Y222_R227W_YF] | 3.08
101 | ILILKYPIEHG [ACTA1_Y71_T68I] | 0.39
102 | VTGWGYRKLRE [F11_Y521_D526E] | 0.495
103 | FCRHNYGAVES [HLA-DRB1_Y112_V114A_YF] | 0.359
104 | SLDLSYFTTSS [EMD_Y181_P183T_YF] | 0.38
105 | DEFLEYRRIVG [FAM221A_Y20_YF] | 0.505
106 | SSNLFYRWLTA [CNGA3_Y169_YF] | 0.473
107 | SSENPYATIKD [MEGF10_Y1030] | 1.52
108 | GVIKEYQIRQV [USH2A_Y3623] | 0.356
109 | MLEAPYVDRNS [F10_Y384_V382A] | 0.465
110 | PKGTGYIKTEL [STAT1_Y701] | 0.512
111 | TIQRMYGCDVG [HLA-A_Y123_I121R] | 0.442
112 | SFCFRYRCAPR [SUMF1_Y344_A348P_YF] | 0.605
113 | ISRVLYPNDNF [PYGM_Y281] | 0.759
114 | CDLTDYLMKIL [ACTA1_Y190_R185C] | 0.478
115 | MSPPGYKLVTG [GJA1_Y286] | 0.427
116 | FMYKVYSDPQP [FGFR1_Y280_C277Y] | 0.526

Row | Sequence | phosphorylation enrichment
117 | LYEDCYLLGTS [ASS1_Y87_R86C] | 4.12
118 | YDCKWYIPLTD [BCR_Y756] | 0.483
119 | EKMWTYMRSAE [GRIA4_Y695] | 0.433
120 | TMKSRYMELFD [BBS2_Y644_YF] | 0.447
121 | TESNNYIFKTL [FAM83B_Y637_YF] | 0.528
122 | TDVSLYPSGGT [TENM4_Y399] | 0.353
123 | RLEGVYGNNID [PTEN_Y46_R47G] | 1.57
124 | YDGGCYEQLFV [MC4R_Y41_S36Y] | 2.04
125 | KLQQWYREHRS [GPI_Y17] | 0.382
126 | APVEDYGGGGG [B4GALT6_Y382_I379V] | 0.496
127 | SRIWVYNHYRW [BRCA2_Y2621] | 0.469
128 | RWGQKHMTAVV [CYBA_Y72_Y72H] | 0.699
129 | CGTPTCLAPEV [CHEK2_Y390_Y390C] | 0.504
130 | SVIVPYEPPEV [TP53_Y220_V217I] | 0.654
131 | SHNKYYMLVAR [MFSD8_Y134] | 0.494
132 | FLTLHYDAKPQ [ANG_Y38_Q36L] | 0.449
